The target of assay [1] is T1, purified recombinant IFNAR-1 extracellular fragment (human, UniProt P17181 28-436).
T1 construct: extracellular domain; also called soluble IFNAR-1; soluble IFNAR
T1 sequence (looked up): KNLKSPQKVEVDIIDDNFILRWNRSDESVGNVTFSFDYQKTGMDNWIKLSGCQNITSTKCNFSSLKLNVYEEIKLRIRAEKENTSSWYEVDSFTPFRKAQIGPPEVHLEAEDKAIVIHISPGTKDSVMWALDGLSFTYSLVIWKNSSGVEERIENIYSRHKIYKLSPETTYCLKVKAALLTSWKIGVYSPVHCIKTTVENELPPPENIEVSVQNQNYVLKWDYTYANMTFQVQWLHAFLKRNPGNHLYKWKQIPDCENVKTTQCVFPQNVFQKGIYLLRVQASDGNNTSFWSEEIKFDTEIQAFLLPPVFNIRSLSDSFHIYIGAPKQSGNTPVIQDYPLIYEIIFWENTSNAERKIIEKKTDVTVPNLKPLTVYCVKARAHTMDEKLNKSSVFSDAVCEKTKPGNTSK
Briefly: Biacore, maximal association on IFNAR-1 relative to M3K1. The text has this:
(§1) Pools 4 and 11 were selected for further study and the individual antibodies in each pool were produced and expressed separately. The sequences of these individual antibodies were as shown in SEQ ID NO:12 of FIG. 1F and SEQ ID NO: 13 of FIG. 1G. The data is presented as maximal association relative to M3K1. […]

The target of assay [2] is T1, purified recombinant IFNAR-1 …. Briefly: Biacore, antibody captured on anti-human IgG Fc, soluble IFNAR-1 25-400 nM, flow cell 4-3 higher density capture. The text has this: (§2) The binding affinity of M3K1 was compared to that of H3K1.
Background: In SPR one partner is held on a chip, and binding of the other changes the refractive index at the surface.

Assay [3] shares this target. Briefly: Biacore, antibody captured on anti-human IgG Fc, soluble IFNAR-1 25-400 nM, flow cell 2-1 low density capture.
Description: as §2

For assay [4] the target is unchanged. As to the kind of experiment: Biacore, antibody captured on anti-human IgG Fc, soluble IFNAR 25-400 nM, flow cell 2-1 low density capture; Flow cell 2-1, low density capture.
Description: as §2

For assay [5] the target is unchanged. Briefly: Biacore, antibody on immobilized soluble IFNAR-1, maximal response, mean of four. On the procedure:
Additional combination variants heavy chain DI M3-B and light chain DI K1-C were also made. These combination variants were also tested for binding to IFNAR-1. […] Binding analysis was done by Biacore, with the antibody bound to immobilized soluble IFNAR-1. Maximal response was determined at two concentrations and values shown are mean of four determinations.

Assay [6] shares this target. Briefly: Biacore, maximal association on IFNAR-1 relative to M3K1.
Description: as §1
The source holds these as a separate data set.

For assay [7] the target is unchanged. Briefly: Biacore, response on IFNAR-1 (flow cell 2) divided by response on anti-human IgG Fc (flow cell 4).
The target is the same in assay [8]. As to the kind of experiment: Biacore, antibody captured on anti-human IgG Fc, soluble IFNAR 25-400 nM, flow cell 4-3 higher density capture.
The target is the same in assay [9]. Briefly: Biacore, antibody captured on anti-human IgG Fc, soluble IFNAR 25-400 nM, flow cell 2-1 low density capture.
Assay [10] addresses T2, IFNAR-1 on human cells (human, UniProt P17181 28-557).
T2 construct: whole, on cells; Endogenous receptor on cells; the cells also carry IFNAR-2; also called BALL-1 cells, which express IFNAR-1 and IFNAR-2; Daudi cells
T2 sequence (looked up): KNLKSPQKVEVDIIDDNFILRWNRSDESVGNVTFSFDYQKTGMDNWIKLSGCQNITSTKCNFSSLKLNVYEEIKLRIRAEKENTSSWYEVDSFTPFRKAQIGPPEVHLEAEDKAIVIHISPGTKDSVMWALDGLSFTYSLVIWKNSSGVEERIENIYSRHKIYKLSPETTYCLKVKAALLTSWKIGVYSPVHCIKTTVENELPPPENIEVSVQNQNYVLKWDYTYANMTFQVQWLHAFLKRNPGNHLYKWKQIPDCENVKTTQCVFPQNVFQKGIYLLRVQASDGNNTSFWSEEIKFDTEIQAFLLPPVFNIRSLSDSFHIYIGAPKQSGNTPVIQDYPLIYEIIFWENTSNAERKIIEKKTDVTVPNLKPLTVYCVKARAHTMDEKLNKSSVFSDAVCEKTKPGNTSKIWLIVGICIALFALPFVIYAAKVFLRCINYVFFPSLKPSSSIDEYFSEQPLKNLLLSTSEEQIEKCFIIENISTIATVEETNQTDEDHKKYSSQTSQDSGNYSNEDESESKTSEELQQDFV
As to the kind of experiment: Scatchard analysis, 125I-labelled antibody on BALL-1 cells. On the procedure:
BALL-1 cells, which express IFNAR-1 and IFNAR-2, were used to assess the binding of anti-IFNAR-1 humanized antibodies to cells by Scatchard analysis. The cells were grown in RPMI containing 10% FCS and washed twice with Hanks Balanced Salt Solution (HBSS) at 4 degrees C. […] Millipore plates (MAFB NOB) were coated with 1% nonfat dry milk in water and stored a 4° C. overnight. The plates were washed with binding buffer and 25 ul of unlabeled antibody (1000-fold excess) in TBS binding buffer was added to control wells in a Millipore 96 well glass fiber filter plate (non-specific binding NSB). Twenty-five microliters of buffer alone was added to the maximum binding control well (total binding). Twenty-five microliters of ¹²⁵I-anti-IFNAR-1 antibody and 25 ul of BALL-I cell suspension (4×10⁷ cells/ml) in TBS binding buffer were added. The plates were incubated for 2 hours at 200 RPM on a shaker at 4° C. At the completion of the incubation the Millipore plates were washed twice with 0.2 ml of cold TBS binding buffer containing a final concentration of 0.5 M NaCl. The filters were removed and counted in a gamma counter. Evaluation of equilibrium binding was performed using single site binding parameters with the Prism software (San Diego, Calif.).
Therefore in either a protein-based or cell-based assay, the binding affinity of the antibodies are in the low nM range.

Assay [11] deals with T2, IFNAR-1 on human cells. As to the kind of experiment: cell-based or functional assay.
For assay [12], the target named is T1, purified recombinant IFNAR-1 …. As to the kind of experiment: Receptor Binding (Biacore), purified recombinant receptor.
Assay [13] shares this target. As to the kind of experiment: Biacore, IFNAR-1 extracellular fragment coupled to CM5 chip, antibody 1.75-80 nM. The method, then:
Antibodies from clones 64G12, H2K6, H2K1, H3K6, and H3K1 were assayed by Biacore analysis (Biacore AB, Uppsala, Sweden) to determine binding kinetics. Purified recombinant IFNAR-1 extracellular fragment was coupled to the CM5 sensor chip @ 600 RU. Binding was measured by adding antibody at concentrations from 1.75-80 nM at a flow rate of 20 ul/min. The binding curves were fit to a Langmuir binding model using BIAevaluation software (Biacore AB, Uppsala, Sweden).

Assay [14] has the same target. Briefly: Biacore, 200 nM antibody on immobilized soluble IFNAR-1.
The target in assay [15] is T2, IFNAR-1 on human cells. Briefly: cell-based or functional assay. The source holds these as a separate data set.
Assay [16] concerns the target T1, purified recombinant IFNAR-1 …. As to the kind of experiment: Receptor Binding (Biacore), purified recombinant receptor; Biacore, purified recombinant receptor (not BALL-1 cells).

Consider three molecules from US20050208041A1 (Bristol-Myers Squibb, published 2005).

Where two headings read alike, the source gives them in different places.

B1: M3K1 (antibody, V domains shown)
VH: EVQLLESGGGLVQPGGSLRLSCAFSGFTLSTSGMGIGWVRQAPGKGLEWVAHIWWDDDKYYNPSLKSRFTISRDTSKNTVYLQMNSLRAEDTAVYYCARNYYPYDAWFDYWGQGTLVTVS
VL: DIQMTQSPSSLSASVGDRVTITCSASSSINSNHLHWYQQKPGKAPKLLIYRTSILASGVPSRFSGSGSGTSFTLTISSLQPEDFATYYCQQGSNIPFTFGQGTKVEIKR
notes: also called heavy chain M3 with light chain K1
Consider B1, for which the “% activity relative to M3K1” value in assay [1] and in [6] was 100% each time. The Kd (as a rule, the free concentration of one partner at which half of the binding sites on the other are occupied at equilibrium, for simple one-to-one binding) was found to be 7.99 nM in assay [2], 7.09 nM in assay [3], 7.99 nM in assay [8] and 7.09 nM in [9]. Besides, the koff (commonly the rate constant with which the complex falls apart) in assay [2] came to 4.39e-05 s⁻¹; in assay [3] it was 3.79e-05 s⁻¹; in assay [8], 4.39e-05 s⁻¹; in assay [9], 3.79e-05 s⁻¹. The kon (in general, a measure of how fast the partners come together) in assay [2] turned out to be 5490 M⁻¹ s⁻¹; in [3] it was 5340 M⁻¹ s⁻¹; in assay [4], 5340 M⁻¹ s⁻¹; in assay [8] it was 5490 M⁻¹ s⁻¹. For the same molecule, in assay [5], the “% response relative to H3K1” value was 97%. Besides, the “% activity relative to H3K1” value in [7] was 140%. The Fc2/Fc4 in assay [7] turned out to be 0.42.

B2: H3K1 (IgG4) (antibody, V domains shown)
VH: EVQLVESGGGLVQPGGSLRLSCAFSGFTLSTSGMGIGWVRQAPGKGLEWVAHIWWDDDKYYNPSLKSRFTISRDTSKNTVYLQMNSLRAEDTAVYYCARNYYPYDAWFDYWGQGTLVTVS
VL: DIQMTQSPSSLSASVGDRVTITCSASSSINSNHLHWYQQKPGKAPKLLIYRTSILASGVPSRFSGSGSGTSFTLTISSLQPEDFATYYCQQGSNIPFTFGQGTKVEIKR
notes: also called H3K1 standard; humanized anti-IFNAR-1 mAb H3K1
Take B2: the “% activity relative to M3K1” value in [1] stood at 115%; in assay [6], 138%. The Kd in assay [10] was determined as 4 nM; in assay [2], 6.43 nM; in assay [3], 6.26 nM; in assay [12] it was 3.4 nM; in assay [13], 3.4 nM. Also, the results for the koff in [2] and in [3] were 4.81e-05 s⁻¹ and 5.04e-05 s⁻¹, respectively. Further, the kon was determined as 7480 M⁻¹ s⁻¹ in assay [2] and 8060 M⁻¹ s⁻¹ in assay [3]. Moreover, the “% response relative to H3K1” value in [5] was determined as 100%. In assay [7], the “% activity relative to H3K1” value came out at 100%. Moreover, the Fc2/Fc4 in assay [7] worked out at 0.3. Further, in assay [11], the “Cell Proliferation (Daudi) IC50, cells cultured with interferon α2b” value came out at 9.1 nM. The “ISRE-RG Reporter (U937) IC50, interferon α2b” value in assay [11] was 21.5 nM. The “Max Response relative to H3K1 (%)” value in [14] stood at 100%.

B3: murine monoclonal antibody 64G12 (antibody, V domains shown)
VH: QVTLKESGPGILKPSQTLSLTCSFSGFSLSTSGMGIGWIRQPSGKGLEWLAHIWWDDDKYYNPSLKSQLTISRDTSTNQVFLNITSVDTVDTATYYCGRNYYPYDAWFDYWGQGTLVTVS
VL: EIVLTQSPTTMAASPGEKITITCSASSSINSNHLHWYQQKPGFSPKVLIYRTSILASGVPTRFSGSGSGTSYSLTIGTMEAEDVATYYCQQGSNIPFTFGSGTELEIKR
notes: Mouse IgG1, kappa light chain; also called 64G12 (mouse IgG1); murine anti-IFNAR-1 mAb 64G12
Regarding B3, the Kd is 3.9 nM in assay [10], 1.2 nM in [16] and 1.2 nM in assay [13]. Moreover, the “fold decrease in ISRE-RG reporter assay with IFNβ, potency against H3K1 (IgG1)” value in assay [15] was found to be 3 fold. Also, the “Cell Proliferation (Daudi) IC50, cells cultured with interferon α2b” value in assay [11] amounted to 2.1 nM. The “ISRE-RG Reporter (U937) IC50, interferon α2b” value in [11] turned out to be 5.8 nM.
